# Results reported in patent US20250270302A1.
# B1: anti-Gremlin-1 antibody 14-D10-2 (antibody, from a related filing, IgG2b, V domains shown)
# VH: EVQLQQSGPELVKPGASVKISCKASGYSFTGYYMHWVKQSHGNILDWIGYFFPYNGFSNCNQKFKGKATLTVDKSSSTAYMELRSLTSEDSAVYYCARGGLGRGYFDVWGTGTTVTVSS
# VL: DIQMTQSPSYLSVSLGGRVTITCKASDHINNWLAWYQQKPGNAPRLLISGATSLETGVPSRFSGSGSGKDYTLSITSLQTEDVATYYCQQYWSSPRTFGGGTKLEIK
# Assays:
# [1] = biological target: human Gremlin-1 (huGREM1), recombinant protein (human) (UniProt O60565); experiment: cell-based or functional assay
# Sequence of UniProt O60565 (O60565 25-184 limits assumed): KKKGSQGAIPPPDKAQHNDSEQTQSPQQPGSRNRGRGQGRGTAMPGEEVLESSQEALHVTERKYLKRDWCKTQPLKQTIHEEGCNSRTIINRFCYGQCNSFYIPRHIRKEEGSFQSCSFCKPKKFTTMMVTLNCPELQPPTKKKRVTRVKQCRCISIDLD
# [2] = biological target: human Gremlin-1 (huGREM1), recombinant protein (human) (UniProt O60565); experiment: binding ELISA on huGREM1, hybridoma clone selection
binder,measurement,setting,value
B1,"EC50, in vitro Gremlin-1 neutralization assay (ALP activity in ATDC5 cells)",[1],26.4 nM
same,OD 492 nm,[2],> 0.9 OD 492 nm
